The results in this text go back to patent US20150224182A1 (UNIVERSITY OF VIRGINIA PATENT FOUNDATION, published 2015).

Non-standard residues stand in square brackets, D forms with d. No end group written: not given here. pT = C[C@@H](OP(=O)(O)O)[C@H](N)C(=O)O; pS = N[C@@H](COP(=O)(O)O)C(=O)O

One assay deals with T1, HLA-B*0702 (human).
T1 construct: also called HLA-B7
Kind of assay: HLA-B7 eluate MS; ALL1; 1 means <1 copy/cell.

For another assay, the target named is T2, HLA-A*0201 (human).
T2 construct: also called HLA-A2
Kind of assay: listed as presented with class I MHC on cancer cells (leukemia or transformed B cells).

Another assay concerns the target T3, HLA B*0702 (human).
T3 construct: Class I MHC molecule of the cells from which the associated phosphopeptides were detected; also called HLA-B7
Kind of assay: MS of peptides eluted from HLA; L/M column: L.

Excerpt for HLA-B*0702: The mixture was subjected to centrifugation and the resulting supernatant was passed over protein A sepharose pre-loaded with the HLA-A2-specific antibody BB7.2 or HLA-B7-specific antibody ME1. Peptides were eluted from the purified class I MHC molecules with 10% acetic acid.

With RSE[pS]KDRKL [IP6K1 phosphopeptide RSEsKDRKL], the binding result with HLA-B*0702 is reported as “binds”. In the case of KMD[pS]FLDMQL [KMDsFLDMQL], the binding result with HLA-A*0201 is reported as “binds”.

With KPR[pS]PDHVL [MACF1 phosphopeptide KPRsPDHVL], the binding result with HLA-B*0702 is listed as “binds”. As to RSL[pS]PGGAA [RBM15 phosphopeptide RSLsPGGAA], the binding result with HLA-B*0702 is recorded as “binds”.

B1: RLAsLNAEAL (peptide)
peptide: RLA[pS]LNAEAL
notes: From Bromo adjacent homology domain-containing 1 protein, UniProt Q8TBE0
For B1, in the assay with HLA-A*0201, the binding result is “binds”.

B2: KMYsEIDIKV (peptide)
peptide: KMY[pS]EIDIKV
notes: From 116 kDa U5 small nuclear ribonucleoprotein component, UniProt Q15029
As to B2, in the assay with HLA-A*0201, the binding result is “binds”. GGSFGGRSSG[pS]P (From HNRNPA3, UniProt P51991) [GGSFGGRSSGsP]: the binding result with HLA-A*0201 is given as “binds”.

B3: KAKsPAPGL (peptide)
peptide: KAK[pS]PAPGL
notes: From Nuclear receptor corepressor 2, UniProt Q9Y618
In the case of B3, in the assay with HLA-A*0201, the binding result was “binds”.

For the molecule AMLGSK[pS]PDPYRL (From Protein SON, UniProt P18583) [AMLGSKsPDPYRL], the binding result in the assay with HLA-A*0201 was “binds”.

As for RTY[pS]GPMNKV (From POF1B, UniProt Q8WVV4) [RTYsGPMNKV], the binding result with HLA-A*0201 is recorded as “binds”. Regarding RPW[pS]PAVSA [SKI phosphopeptide RPWsPAVSA], the binding result with HLA-B*0702 is on record as “binds”. On to ALD[pS]GASLLHL [ALDsGASLLHL], for which the binding result in the assay with HLA-A*0201 was “binds”. Regarding RPN[pS]PSPTAL [TLK1 phosphopeptide RPNsPSPTAL], the binding result with HLA-B*0702 was “binds”. Regarding YQR[pS]FDEVEGVF [YQRsFDEVEGVF], in the assay with HLA B*0702, the binding result is “binds”. Take ALG[pS]RESLATI [ALGsRESLATI]: the binding result with HLA-A*0201 is “binds”. On to KLD[pS]PRVTV (From Protein FAM86A, UniProt Q96G04) [KLDsPRVTV], for which, in the assay with HLA-A*0201, the binding result is “binds”. In the case of RQA[pS]LSISV (From Protein kinase 2D, UniProt A0JLT6) [RQAsLSISV], in the assay with HLA-A*0201, the binding result is reported as “binds”. As to SPK[pS]PGLKA [RCSD1 phosphopeptide SPKsPGLKA], the binding result with HLA-B*0702 was “binds”. Regarding KVL[pS]TEEMEL (From Protein FAM128B, UniProt Q6NZ67) [KVLsTEEMEL], the binding result with HLA-A*0201 was “binds”. Take KLMAPDI[pS]L [KLMAPDIsL]: the binding result in the assay with HLA-A*0201 is listed as “binds”. Turning to VLMKSPSPAL (also: one of S5 or S7 phosphorylated, From YTHDC2, UniProt Q9H6S0) [VLMK(sPs)PAL], the binding result with HLA-A*0201 was “binds”. Take KPQTRGK[pT]F (also called Carabin) [TBC1D10C phosphopeptide KPQTRGKtF]: the binding result with HLA-B*0702 is reported as “binds”.

B4: KIFsGVFVKV (peptide)
peptide: KIF[pS]GVFVKV
notes: From 60S ribosomal protein L7-like 1, UniProt Q6DKI1
With B4, the binding result in the assay with HLA-A*0201 is “binds”.

SPR[pS]PGKPM [phosphopeptide SPRsPGKPM (no gene name in Table 7; no database hit)]: the binding result with HLA-B*0702 is on record as “binds”.

B5: MLAEsPSVPRL (peptide)
peptide: MLAE[pS]PSVPRL
notes: From Putative uncharacterized protein, UniProt Q8WUC7
For B5, in the assay with HLA-A*0201, the binding result is “binds”.

B6: RQIsFKAEV (peptide)
peptide: RQI[pS]FKAEV
notes: From Ubiquitin-conjugating enzyme E2 J1, UniProt Q9Y385
B6: the binding result with HLA-A*0201 is “binds”. Take RPPPPPD[pT]PP [KLF2 phosphopeptide RPPPPPDtPP]: the binding result in the assay with HLA-B*0702 was “binds”. For the molecule KLLQFYP[pS]L [KLLQFYPsL], the binding result with HLA-A*0201 was “binds”.

B7: RPR(sLss)PTVTL (peptide)
peptide: RPRSLSSPTVTL
modifications: also: one of Ser4, Ser6, Ser7 phosphorylated
notes: From E3 ubiquitin-protein ligase NEDD4-like, UniProt Q96PU5
As for B7, in the assay with HLA-A*0201, the binding result was “binds”. Take RP[pS]SPALYF [TSC22D4 phosphopeptide RPsSPALYF]: the binding result with HLA-B*0702 is reported as “binds”. Regarding RPV[pS]PGKDI [HIVEP2 phosphopeptide RPVsPGKDI], the binding result with HLA-B*0702 is “binds”. On the same count and under the same terms, for TPI[pS]PGRASGM [RUNX1 phosphopeptide TPIsPGRASGM] the value was “binds”; for RPA[pS]ARAQPGL [C6orf64 phosphopeptide RPAsARAQPGL], “binds”.

B8: ILDsGIYRI (peptide)
peptide: ILD[pS]GIYRI
notes: From Hermansky-Pudlak syndrome 5 protein, UniProt Q9UPZ3
Take B8: the binding result in the assay with HLA-A*0201 was “binds”. Turning to TPAQPQRR[pS]L [TPX2 phosphopeptide TPAQPQRRsL], the binding result in the assay with HLA-B*0702 is “binds”.

B9: YQLsPTKLPSI (peptide)
peptide: YQL[pS]PTKLPSI
notes: From Nibrin/cell cycle regulatory protein p95, UniProt O60934
B9: in the assay with HLA-A*0201, the binding result is “binds”.

B10: GLLsPARLYAI (peptide)
peptide: GLL[pS]PARLYAI
notes: From Leucine rich PPR-motif containing protein, UniProt P42704
Turning to B10, the binding result in the assay with HLA-A*0201 is “binds”. Regarding RPA[pT]GGPGVA [phosphopeptide RPAtGGPGVA (no gene name in Table 7; Unknown protein)], the binding result with HLA-B*0702 is listed as “binds”. Turning to RPH[pS]PEKAF [C17orf85 phosphopeptide RPHsPEKAF], the binding result with HLA-B*0702 was “binds”. On to DS[pS]EEKFL (From Statherin (saliva), UniProt P02808) [DSsEEKFL], for which the binding result in the assay with HLA-A*0201 is “binds”. On the same count and under the same terms, for KVA[pS]LLHQV [KVAsLLHQV] the value was “binds”. For the molecule RPI[pT]PPRNSA [PPP1CA phosphopeptide RPItPPRNSA], in the assay with HLA-B*0702, the binding result is reported as “binds”. As for YQR[pS]FDEVEGV [YQRsFDEVEGV], the binding result in the assay with HLA B*0702 is listed as “binds”.

B11: KLFsPSKEAEL (peptide)
peptide: KLF[pS]PSKEAEL
notes: From Protein cramped-like, UniProt Q96RY5
As for B11, in the assay with HLA-A*0201, the binding result was “binds”. Take SPA[pS]PKISL [ATXN2L phosphopeptide SPAsPKISL]: the binding result with HLA-B*0702 was “binds”. On the same count and under the same terms, for RSG[pS]LERKV (also called C20orf117) [KIAA0889 phosphopeptide RSGsLERKV] the value was “binds”.

For AVIHQ[pS]LGL (From Protein CNPPD1, UniProt Q9BV87) [AVIHQsLGL], the binding result with HLA-A*0201 was “binds”.
